Source: the supplement of paper PMC10126150
± gives the standard deviation of the averaged measurements.

Tested on: ATP
Assay: switch fluorescence ratio, 500 uM ATP over buffer (Cy3 cluster intensity, sum of 5 cycles each) (fold (ratio)); higher = stronger signal-on switching upon ATP binding; sequences stand for … in TCGTCGGCAGCGTCAGATGTGTATAAGAGACAGTTTTTTTTTTTTTTTTTTTTTTTTT…TC
Conditions: aptamer strand: ATP DNA aptamer (quencher-CACCTGGGGGAGTATTGCGGAGGAAGG + anchor), 100 nM annealed; ATP concentration: 500 uM
How it was run: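 Exposure to 500 uM ATP lasted 15 min at 22 °C before imaging, and a selection-buffer image was taken beforehand, for Cy3-labelled switching-strand clusters on a modified Illumina MiSeq flow-cell annealed to 100 nM quencher-labelled ATP aptamer. Five buffer/ATP cycles were run with NaOH stripping and re-annealing between them. The fluorescence ratio per cluster is summed target-cycle over summed buffer-cycle Cy3 intensity, averaged per switch-domain sequence. Clusters outside 100-1000 RFU were excluded.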

TCCGGAGTTT
switch fluorescence ratio: 2.55 ± 0.38

TTTCTCCTTT
switch fluorescence ratio: 1.04 ± 0.035

TTGGGGTCAG
switch fluorescence ratio: 1 ± 0.038

TATAATGTTT
switch fluorescence ratio: 1.02 ± 0.048

TTTAGGGTGG
switch fluorescence ratio: 1.01 ± 0.012

ATTGGGTAGG
switch fluorescence ratio: 0.993 ± 0.025

CGCGGCGGTC
switch fluorescence ratio: 1.02 ± 0.014

GAGTAAACTT
switch fluorescence ratio: 1.056 ± 0.0082

CGTTTAAATC
switch fluorescence ratio: 0.986 ± 0.013

TGAATTGGTC
switch fluorescence ratio: 1.06 ± 0.16

GTAACATGGG
switch fluorescence ratio: 0.973 ± 0.021

AAGAGTCTT
switch fluorescence ratio: 0.963 ± 0.042

CAGGGGGGAA
switch fluorescence ratio: 1.024 ± 0.0064

CGGGGTTGTT
switch fluorescence ratio: 0.9882 ± 0.0067

TCCGGGTTTG
switch fluorescence ratio: 1.02 ± 0.037

TAGTAGTTGT
switch fluorescence ratio: 1 ± 0.013

TCTGGCTATT
switch fluorescence ratio: 1.01 ± 0.02

TGGGGAAACT
switch fluorescence ratio: 1.15 ± 0.23

ATATGGCCGT
switch fluorescence ratio: 0.994 ± 0.023

AGCGTGTTTA
switch fluorescence ratio: 1.04 ± 0.036

TTCCCGGCTG
switch fluorescence ratio: 1.03 ± 0.016

GTTTAATTGA
switch fluorescence ratio: 0.9676 ± 0.0018

CACGAAAGGA
switch fluorescence ratio: 1.07 ± 0.033

CCCATGCCCG
switch fluorescence ratio: 1.04 ± 0.021

ATGGGGGATG
switch fluorescence ratio: 0.973 ± 0.028

GCCGGGGACC
switch fluorescence ratio: 0.98 ± 0.031

AAAGTCCTAG
switch fluorescence ratio: 0.99 ± 0.016

CGGAACAATG
switch fluorescence ratio: 1.3945 ± 0.00059

TGCTCATTTT
switch fluorescence ratio: 0.992 ± 0.032

GCGGTTCGAG
switch fluorescence ratio: 0.9872 ± 0.0033

TTGATTAAGC
switch fluorescence ratio: 1.03 ± 0.043

ACATATGGAT
switch fluorescence ratio: 1 ± 0.015

AAAAAACGGT
switch fluorescence ratio: 1.02 ± 0.025

CATTAGTTGG
switch fluorescence ratio: 1.006 ± 0.0052

TTTTTAGATC
switch fluorescence ratio: 1.004 ± 0.0088

GTGAGGGGGG
switch fluorescence ratio: 1.01 ± 0.013

CAGTTCGGAA
switch fluorescence ratio: 1.07 ± 0.027

TTTAGCAAAC
switch fluorescence ratio: 3.53 ± 0.95

GATAGGACGC
switch fluorescence ratio: 1.05 ± 0.02

GCGGGGCAAC
switch fluorescence ratio: 1.01 ± 0.064

TGCAGGAGCT
switch fluorescence ratio: 1.01 ± 0.032

GTGGGTCCTA
switch fluorescence ratio: 0.9891 ± 0.0013

ACCAATGGGG
switch fluorescence ratio: 1.02 ± 0.036

TTCGGGGGAC
switch fluorescence ratio: 1.13 ± 0.14

ATCGGATTAG
switch fluorescence ratio: 0.995 ± 0.0094

GGGTTATCAC
switch fluorescence ratio: 0.984 ± 0.0095

AGCGTATGGG
switch fluorescence ratio: 0.983 ± 0.035

CGGGGGTTCA
switch fluorescence ratio: 1.01 ± 0.035

ACGTGCAGTG
switch fluorescence ratio: 0.9525 ± 0.0085

TAAATCACGC
switch fluorescence ratio: 1.23 ± 0.24

TATGTTTATC
switch fluorescence ratio: 0.975 ± 0.055

GTGGTCCGTG
switch fluorescence ratio: 0.962 ± 0.0097

AGGGGTGGTT
switch fluorescence ratio: 0.9581 ± 0.0017

GGGTTGTGCT
switch fluorescence ratio: 0.953 ± 0.015

GCCTTTTTGG
switch fluorescence ratio: 1.02 ± 0.022

TAGGTAATAT
switch fluorescence ratio: 1.02 ± 0.036

TTGTAGTTAT
switch fluorescence ratio: 1.09 ± 0.16

TAAGTTTGCC
switch fluorescence ratio: 1.01 ± 0.04

TATATGAGAG
switch fluorescence ratio: 0.973 ± 0.017

GGAAACTTAG
switch fluorescence ratio: 1.019 ± 0.0089

CAGGTTAAGG
switch fluorescence ratio: 1.01 ± 0.018

TGCAGGTTTT
switch fluorescence ratio: 1.01 ± 0.054

AAAGGTGCAA
switch fluorescence ratio: 1.21 ± 0.2

AGGGGGACGG
switch fluorescence ratio: 0.987 ± 0.023

TTTCGGTGGC
switch fluorescence ratio: 0.99 ± 0.072

GAGGATGGGG
switch fluorescence ratio: 0.977 ± 0.039

GGATATAAGT
switch fluorescence ratio: 1.01 ± 0.035

TGTTAGATAG
switch fluorescence ratio: 1 ± 0.025

GAAGGATGCT
switch fluorescence ratio: 1.03 ± 0.098

CGGTGCATGA
switch fluorescence ratio: 1.027 ± 0.0092

GAGGAATTTT
switch fluorescence ratio: 0.983 ± 0.0093

TAAAAAGGGT
switch fluorescence ratio: 1 ± 0.048

GGGGCGGGGC
switch fluorescence ratio: 1.01 ± 0.014

TTAAAAATAA
switch fluorescence ratio: 1.04 ± 0.073

GCGGGACGTG
switch fluorescence ratio: 0.9857 ± 0.0098

GGGGTAGGCC
switch fluorescence ratio: 0.995 ± 0.018

TGCAATAATA
switch fluorescence ratio: 1.06 ± 0.091

GAGCATTGGA
switch fluorescence ratio: 0.992 ± 0.036

GGTGTTGTTT
switch fluorescence ratio: 0.963 ± 0.019

TGCACATTCC
switch fluorescence ratio: 1.7 ± 0.15

TAGTTCGACT
switch fluorescence ratio: 1.004 ± 0.0091

TAAAACTTAC
switch fluorescence ratio: 1.45 ± 0.1

TGGGGAGCAA
switch fluorescence ratio: 1.73 ± 0.074

TTCGGAGTTT
switch fluorescence ratio: 1.01 ± 0.12

AAAAATCGT
switch fluorescence ratio: 1.01 ± 0.014

GATCTTTCGT
switch fluorescence ratio: 1.01 ± 0.031

AAGGCGAGGG
switch fluorescence ratio: 1.01 ± 0.015

TATGCAACTT
switch fluorescence ratio: 0.993 ± 0.015

TTAGTCAATG
switch fluorescence ratio: 0.999 ± 0.022

TAGGGGATTT
switch fluorescence ratio: 1 ± 0.042

AAGAGGCGGT
switch fluorescence ratio: 1.01 ± 0.022

TCATTATGCA
switch fluorescence ratio: 1.04 ± 0.018

TAAGCGGGAC
switch fluorescence ratio: 2.88 ± 2

AAGTTTTTGC
switch fluorescence ratio: 1.01 ± 0.019

TTTTTTATGG
switch fluorescence ratio: 1.01 ± 0.031

ATTCAATCGG
switch fluorescence ratio: 0.98 ± 0.024

GTTTACTGAA
switch fluorescence ratio: 1.01 ± 0.018

ATGTGGGTTA
switch fluorescence ratio: 1.01 ± 0.022

AGGTAATATG
switch fluorescence ratio: 0.9867 ± 0.0081

TATTAATAGT
switch fluorescence ratio: 1.01 ± 0.024

TTTTGTGGTG
switch fluorescence ratio: 1.001 ± 0.007

GGACAAAAGA
switch fluorescence ratio: 0.984 ± 0.011

GCGCTTGTAC
switch fluorescence ratio: 2.36 ± 0.55

TATTTCTGTA
switch fluorescence ratio: 1.03 ± 0.019

AGGTCTGGGC
switch fluorescence ratio: 0.978 ± 0.074

GATAGCCCGT
switch fluorescence ratio: 0.99 ± 0.021

AATATTGAAC
switch fluorescence ratio: 0.99 ± 0.036

TTGTGATTCT
switch fluorescence ratio: 0.97032 ± 0.00028

GTCGAAAGGG
switch fluorescence ratio: 1.01 ± 0.05

ATCAGGTGCG
switch fluorescence ratio: 1.2924 ± 0.00069

GGAAAGGGAG
switch fluorescence ratio: 0.97 ± 0.02

GTGTGACTTC
switch fluorescence ratio: 0.988 ± 0.018

GGCCCGGACT
switch fluorescence ratio: 1.04 ± 0.013

TTACACGTAA
switch fluorescence ratio: 1.31 ± 0.019

TGCTTTAAGT
switch fluorescence ratio: 0.9912 ± 0.0029

GAAGGTGGGA
switch fluorescence ratio: 1.038 ± 0.0092

CGTATTAGAG
switch fluorescence ratio: 1.01 ± 0.048

TTCCTATTGA
switch fluorescence ratio: 0.99 ± 0.049

CTAACGCCTT
switch fluorescence ratio: 1.13 ± 0.042

TGTTTTAAAG
switch fluorescence ratio: 1.01 ± 0.061

GAGGCATTTT
switch fluorescence ratio: 1.09 ± 0.089

GCGGGGGCTT
switch fluorescence ratio: 0.98 ± 0.033

TTTAGATAGG
switch fluorescence ratio: 0.98 ± 0.026

TGATAATTAC
switch fluorescence ratio: 1.19 ± 0.27

GATAGTGAGC
switch fluorescence ratio: 0.983 ± 0.036

ATCGGTTTGG
switch fluorescence ratio: 0.996 ± 0.0095

TATGTGAACA
switch fluorescence ratio: 0.991 ± 0.025

AGTGGAGGGG
switch fluorescence ratio: 0.969 ± 0.029

GTGCTTAGGC
switch fluorescence ratio: 1.06 ± 0.026

TAGCCGTCTG
switch fluorescence ratio: 1.04 ± 0.039

GGGCTATTTG
switch fluorescence ratio: 0.978 ± 0.013

TTTACGGATA
switch fluorescence ratio: 1.349 ± 0.013

GCACTCAGGC
switch fluorescence ratio: 0.994 ± 0.03

CATGGGAGGG
switch fluorescence ratio: 1.01 ± 0.029

GGGTTTATGT
switch fluorescence ratio: 0.984 ± 0.029

ATTAGGATAG
switch fluorescence ratio: 1 ± 0.054

GGTTTTTTTA
switch fluorescence ratio: 0.983 ± 0.032

ACCACGGGAA
switch fluorescence ratio: 1.05 ± 0.032

TCCAACATTT
switch fluorescence ratio: 1 ± 0.046

CTAGTTCAGC
switch fluorescence ratio: 0.99 ± 0.028

GGAAAGGGGC
switch fluorescence ratio: 0.95 ± 0.053

CCGGGGGGTA
switch fluorescence ratio: 1.37 ± 0.017

TAATTACTAT
switch fluorescence ratio: 1.12 ± 0.17

TGCAACACAT
switch fluorescence ratio: 1.03 ± 0.029

GCTTGTCTTC
switch fluorescence ratio: 1.005 ± 0.0014

GATGGGGGCG
switch fluorescence ratio: 1.03 ± 0.093

CGAGTGTCGG
switch fluorescence ratio: 0.984 ± 0.02

CTTATTAATC
switch fluorescence ratio: 1.01 ± 0.028

GTTATCAGAG
switch fluorescence ratio: 0.977 ± 0.021

CTGAGTGGC
switch fluorescence ratio: 0.9639 ± 0.0063

CATACGGGGG
switch fluorescence ratio: 1.03 ± 0.025

AAGGAAAGGT
switch fluorescence ratio: 1.061 ± 0.0073

GAATTTAGGT
switch fluorescence ratio: 0.996 ± 0.028

CGGGCCATCG
switch fluorescence ratio: 0.9939 ± 0.0063

TTTGTATACA
switch fluorescence ratio: 1.01 ± 0.015

TCATGCTTGA
switch fluorescence ratio: 0.974 ± 0.032

GGGTAAAACT
switch fluorescence ratio: 1.0166 ± 0.00025

CCGGGGTTGA
switch fluorescence ratio: 0.993 ± 0.074

TTTAAACAA
switch fluorescence ratio: 1 ± 0.032

TGGGTATCGG
switch fluorescence ratio: 0.994 ± 0.021

AGTTGGGTAT
switch fluorescence ratio: 1.02 ± 0.012

TTAACGGTTC
switch fluorescence ratio: 0.983 ± 0.017

GTCGCGGCGA
switch fluorescence ratio: 0.9664 ± 0.006

GCTATTGTGT
switch fluorescence ratio: 0.9858 ± 0.0036

ATGTGTTCTG
switch fluorescence ratio: 0.931 ± 0.031

TGAATGCTTT
switch fluorescence ratio: 1.23 ± 0.3

ATCTATGCGA
switch fluorescence ratio: 1.0635 ± 0.0004

ACAGGTTGTT
switch fluorescence ratio: 1.03 ± 0.071

CGGAGGGAAT
switch fluorescence ratio: 2.91 ± 2.3

ATGGTTGTTG
switch fluorescence ratio: 0.9628 ± 0.0034

ATAGAGGAGT
switch fluorescence ratio: 0.998 ± 0.032

AGAGGCCTGT
switch fluorescence ratio: 1.01 ± 0.0086

AGTCGGTACG
switch fluorescence ratio: 0.994 ± 0.096

CCTGCGGGG
switch fluorescence ratio: 1.11 ± 0.022

GTAGGGTGTG
switch fluorescence ratio: 0.973 ± 0.041

CAATGATGCT
switch fluorescence ratio: 0.935 ± 0.018

CGTTGGGGGA
switch fluorescence ratio: 0.997 ± 0.029

TGGGAGTATT
switch fluorescence ratio: 0.9815 ± 0.0069

TCCGGATATA
switch fluorescence ratio: 1.065 ± 0.004

TGGGGGTTAC
switch fluorescence ratio: 1.08 ± 0.13

TAAAAAAGGT
switch fluorescence ratio: 1.04 ± 0.088

GATTGGGGGG
switch fluorescence ratio: 1 ± 0.029

GCCTAACGCG
switch fluorescence ratio: 1.03 ± 0.018

GATCGGGAGG
switch fluorescence ratio: 0.9844 ± 0.0089

CCTGGTGGGA
switch fluorescence ratio: 0.999 ± 0.014

CATATCGGAA
switch fluorescence ratio: 1.187 ± 0.0077

TAAGGGAGTA
switch fluorescence ratio: 1.004 ± 0.0065

GTCGTTGGTG
switch fluorescence ratio: 1 ± 0.056

TTTATTTAGG
switch fluorescence ratio: 1.04 ± 0.011

ACGGAAAACG
switch fluorescence ratio: 1.023 ± 0.0093

TTAAGCAGTT
switch fluorescence ratio: 0.9853 ± 0.0056

GGACATGGCG
switch fluorescence ratio: 0.943 ± 0.019

TTGGGACTAC
switch fluorescence ratio: 1.02 ± 0.036

GATTATTTTT
switch fluorescence ratio: 0.994 ± 0.028

CGACGGTTGG
switch fluorescence ratio: 0.967 ± 0.013

GTGAGGATTG
switch fluorescence ratio: 0.98581 ± 8e-05

TGTGATGTCA
switch fluorescence ratio: 1.01 ± 0.016

GCCGGTTTCT
switch fluorescence ratio: 1.01 ± 0.031

TCAGGGGCGT
switch fluorescence ratio: 1.0041 ± 0.00072

GTTTATCTGC
switch fluorescence ratio: 1.02 ± 0.025
